First the molecules themselves.
B2: MIOS (subunit of the recombinant GATOR2 complex) (natural protein, human)
chain: MSGTKPDILWAPHHVDRFVVCDSELSLYHVESTVNSELKAGSLRLSEDSAATLLSINSDTPYMKCVAWYLNYDPECLLAVGQANGRVVLTSLGQDHNSKFKDLIGKEFVPKHARQCNTLAWNPLDSNWLAAGLDKHRADFSVLIWDICSKYTPDIVPMEKVKLSAGETETTLLVTKPLYELGQNDACLSLCWLPRDQKLLLAGMHRNLAIFDLRNTSQKMFVNTKAVQGVTVDPYFHDRVASFYEGQVAIWDLRKFEKPVLTLTEQPKPLTKVAWCPTRTGLLATLTRDSNIIRLYDMQHTPTPIGDETEPTIIERSVQPCDNYIASFAWHPTSQNRMIVVTPNRTMSDFTVFERISLAWSPITSLMWACGRHLYECTEEENDNSLEKDIATKMRLRALSRYGLDTEQVWRNHILAGNEDPQLKSLWYTLHFMKQYTEDMDQKSPGNKGSLVYAGIKSIVKSSLGMVESSRHNWSGLDKQSDIQNLNEERILALQLCGWIKKGTDVDVGPFLNSLVQEGEWERAAAVALFNLDIRRAIQILNEGASSEKGDLNLNVVAMALSGYTDEKNSLWREMCSTLRLQLNNPYLCVMFAFLTSETGSYDGVLYENKVAVRDRVAFACKFLSDTQLNRYIEKLTNEMKEAGNLEGILLTGLTKDGVDLMESYVDRTGDVQTASYCMLQGSPLDVLKDERVQYWIENYRNLLDAWRFWHKRAEFDIHRSKLDPSSKPLAQVFVSCNFCGKSISYSCSAVPHQGRGFSQYGVSGSPTKSKVTSCPGCRKPLPRCALCLINMGTPVSSCPGGTKSDEKVDLSKDKKLAQFNNWFTWCHNCRHGGHAGHMLSWFRDHAECPVSACTCKCMQLDTTGNLVPAETVQP
notes: MIOS, subunit of human GATOR2; codon-optimized DNA in pCAG; The MIOS chain of m1, for the pairs of subunits that touch in the structure

The target of data set [1] is B2. The data set is described as follows: cryo-EM structure; purified GATOR2 at 0.45 mg/ml with a threefold molar excess of CASTOR1^apo, 45 min on ice, no arginine; Titan Krios. The conditions noted are these: both partners purified.
Data set [2] deals with the molecule itself. Described as above.
Data set [3] addresses T1, WDR59 (subunit of the recombinant GATOR2 complex) (human, UniProt Q6PJI9 1-974).
T1 construct: WDR59, subunit of human GATOR2; codon-optimized DNA in pCAG; The WDR59 chain of m1
T1 sequence: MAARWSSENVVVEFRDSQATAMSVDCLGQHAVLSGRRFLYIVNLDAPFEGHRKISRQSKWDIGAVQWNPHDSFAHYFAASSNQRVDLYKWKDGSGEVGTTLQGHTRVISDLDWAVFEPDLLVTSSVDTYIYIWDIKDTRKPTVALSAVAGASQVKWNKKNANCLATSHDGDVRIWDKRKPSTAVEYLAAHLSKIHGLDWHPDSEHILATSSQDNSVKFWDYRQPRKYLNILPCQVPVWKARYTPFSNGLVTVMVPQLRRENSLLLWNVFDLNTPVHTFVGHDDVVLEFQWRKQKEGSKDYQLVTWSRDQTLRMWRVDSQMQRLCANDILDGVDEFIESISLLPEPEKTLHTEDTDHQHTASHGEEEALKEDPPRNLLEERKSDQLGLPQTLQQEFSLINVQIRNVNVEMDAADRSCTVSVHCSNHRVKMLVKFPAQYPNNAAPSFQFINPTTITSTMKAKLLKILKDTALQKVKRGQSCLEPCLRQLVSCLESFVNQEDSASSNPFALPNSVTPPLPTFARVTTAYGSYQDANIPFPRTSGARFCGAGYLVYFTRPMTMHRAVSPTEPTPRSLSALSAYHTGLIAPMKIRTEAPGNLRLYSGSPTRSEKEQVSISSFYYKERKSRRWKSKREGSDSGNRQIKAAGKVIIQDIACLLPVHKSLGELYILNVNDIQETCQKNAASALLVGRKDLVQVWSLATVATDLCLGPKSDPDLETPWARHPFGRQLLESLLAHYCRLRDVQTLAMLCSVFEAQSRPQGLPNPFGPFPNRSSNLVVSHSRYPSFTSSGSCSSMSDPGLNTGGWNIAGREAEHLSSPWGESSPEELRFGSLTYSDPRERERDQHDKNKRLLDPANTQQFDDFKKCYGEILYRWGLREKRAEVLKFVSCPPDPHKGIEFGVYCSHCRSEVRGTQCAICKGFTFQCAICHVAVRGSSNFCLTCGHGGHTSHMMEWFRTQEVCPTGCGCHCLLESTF
The data set is described as above. Conditions: both partners purified.

Data set [4] concerns the target T2, WDR24 (subunit of the recombinant GATOR2 complex) (human, UniProt Q96S15 1-790).
T2 construct: WDR24, subunit of human GATOR2; codon-optimized DNA in pCAG; The WDR24 chain of m1
T2 sequence: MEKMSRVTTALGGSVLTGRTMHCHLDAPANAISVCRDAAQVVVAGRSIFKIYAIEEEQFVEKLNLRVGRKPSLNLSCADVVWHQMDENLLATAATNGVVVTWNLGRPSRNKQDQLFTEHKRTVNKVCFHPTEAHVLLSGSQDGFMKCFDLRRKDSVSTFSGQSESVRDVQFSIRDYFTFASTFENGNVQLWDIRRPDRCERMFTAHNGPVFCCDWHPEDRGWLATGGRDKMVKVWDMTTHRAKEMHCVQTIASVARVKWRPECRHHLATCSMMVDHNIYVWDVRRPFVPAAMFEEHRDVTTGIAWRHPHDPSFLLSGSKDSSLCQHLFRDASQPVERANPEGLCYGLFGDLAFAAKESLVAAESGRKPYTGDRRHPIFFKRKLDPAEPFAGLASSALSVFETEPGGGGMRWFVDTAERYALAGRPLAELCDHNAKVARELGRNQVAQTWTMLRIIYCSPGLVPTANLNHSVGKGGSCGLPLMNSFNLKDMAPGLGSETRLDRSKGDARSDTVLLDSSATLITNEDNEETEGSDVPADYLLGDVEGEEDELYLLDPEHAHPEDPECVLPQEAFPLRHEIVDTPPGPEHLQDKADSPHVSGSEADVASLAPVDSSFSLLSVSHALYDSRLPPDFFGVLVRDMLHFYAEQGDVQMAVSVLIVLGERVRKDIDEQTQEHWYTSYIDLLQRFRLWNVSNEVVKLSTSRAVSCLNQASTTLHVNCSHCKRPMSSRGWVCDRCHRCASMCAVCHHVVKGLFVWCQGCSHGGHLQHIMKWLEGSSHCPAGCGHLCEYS
The experiment in a line: cryo-EM structure; purified GATOR2 at 0.45 mg/ml with threefold molar excess of CASTOR1^apo, twofold of SESN2^apo and threefold of GATOR1, 45 min on ice; Talos Arctica, 7.77 Å map. Conditions: both partners purified.

The values that follow come from PMC12477443, “Structural basis for mTORC1 regulation by the CASTOR1–GATOR2 complex” (Nature Structural & Molecular Biology, 2025).

B1: CASTOR1(S111A/D304A), apo-locked mutant (natural protein)
chain: MELHILEHRVRVLSVARPGLWLYTHPLIKLLFLPRRSRCKFFSLTETPEDYTLMVDEEGFKELPPSEFLQVAEATWLVLNVSSHSGAAVQAAGVTKIARSVIAPLAEHHVAVLMLSTYQTDFILVREQDLSVVIHTLAQEFDIYREVGGEPVPVTRDDSSNGFPRTQHGPSPTVHPIQSPQNRFCVLTLDPETLPAIATTLIDVLFYSHSTPKEAASSSPEPSSITFFAFSLIEGYISIVMDAETQKKFPSDLLLTSSSGELWRMVRIGGQPLGFDECGIVAQIAGPLAAADISAYYISTFNFAHALVPEDGIGSVIEVLQRRQEGLAS
notes: CASTOR1, arginine sensor; codon-optimized DNA in pET-28a+; Homodimer in the structure; also called CASTOR1^apo; 6×His–CASTOR1^apo; source: E. coli BL21(DE3), purified (Ni-NTA, Superdex 200 gel filtration)
What is called stoichiometry N is a count of units in the complex or per binding partner. On to B1, for which the binding result in data set [1] is listed as “binds”. For the same molecule, the “stoichiometry N” value in data set [2] amounted to 2.

Take B2: the binding result in data set [3] and in data set [2] was “binds” each time.

B3: SESN2(E451Q/R390A/W444E), apo-locked mutant (natural protein, UniProt P58004 1-480, looked up)
chain: MIVADSECRAELKDYLRFAPGGVGDSGPGEEQRESRARRGPRGPSAFIPVEEVLREGAESLEQHLGLEALMSSGRVDNLAVVMGLHPDYFTSFWRLHYLLLHTDGPLASSWRHYIAIMAAARHQCSYLVGSHMAEFLQTGGDPEWLLGLHRAPEKLRKLSEINKLLAHRPWLITKEHIQALLKTGEHTWSLAELIQALVLLTHCHSLSSFVFGCGILPEGDADGSPAPQAPTPPSEQSSPPSRDPLNNSGGFESARDVEALMERMQQLQESLLRDEGTSQEEMESRFELEKSESLLVTPSADILEPSPHPDMLCFVEDPTFGYEDFTRRGAQAPPTFRAQDYTWEDHGYSLIQRLYPEGGQLLDEKFQAAYSLTYNTIAMHSGVDTSVLARAIWNYIHCVFGIRYDDYDYGEVNQLLERNLKVYIKTVACYPEKTTRRMYNLFERHFRHSQKVHVNLLLLEARMQAALLYALRAITRYMT
notes: sestrin2 (SESN2), leucine sensor; codon-optimized DNA in pET-28a+; also called SESN2^apo; 6×His–SESN2^apo; source: E. coli BL21(DE3), purified (Ni-NTA, SP cation-exchange flowthrough, Superdex 200 gel filtration)
With B3, in data set [4], the binding result is recorded as “binds”.
